Source: US11180733B2, “Method of generating mesenchymal stem cells and uses thereof” (AGENCY FOR SCIENCE, TECHNOLOGY AND RESEARCH, priority 2016, dated 2021)
Entries after “also recorded” stand apart in the source; their conditions may differ.

Key:
[1] = tested on: human induced pluripotent stem cells (iPSCs); experiment: Differentiation of iPSCs towards primitive streak (PS)-like mesendoderm (morphology, qPCR); assay type: cell-based
Description: BJC1-iPSCs were differentiated towards primitive streak-like mesendoderm cells for 2 days with indicated combination of CHIR99021 (3 μM) and FGF (20 ng/ml) in conjunction with the indicated signaling perturbations, qPCR was performed at day 2. […] FIG. 9C represents data from FACS analysis showing more than 97% cells at day 2 were positive for primitive streak genes MIXL1, Brachyury (T) and GSC. FIG. 9D represents the immunofluoresence results at day 2 showing the expression of MIXL1, Brachyury (T) and GSC after 2 day of primitive streak induction.
iPSCs from MRCS or BJ cell lines, or hESCs were differentiated into primitive streak-like mesendoderm cells and primitive streak mesendoderm cells respectively. Feeder-free iPSCs were maintained in mTeSR (Stem Cell Technologies) before differentiation. To differentiate iPSCs, iPSCs were digested with 1 mg/ml collagenase IV for 5-10 min at 37° C. into small clumps and placed on a fibronectin (FN, 10 μg/ml)-coated surface in medium containing activin A (25 ng/ml) and CHIR99021 (3 μM) for 1 day in a basal medium (DMEM: F12, 1% ITS, 2% B27, 2 mM L-Glutamine, 90 uM ß-mercaptoethanol), followed by Activin A (25 ng/ml), CHIR99021 (3 μM) and FGF (20 ng/ml) for subsequent 24 hours to differentiate toward primitive streak (PS)-like mesendoderm.
Quantitative real-time PCR was performed with Taqman expression assay using ABI PRISM 7900HT sequence Detection System (Applied Biosystems). Briefly, […] of total RNA was converted to cDNA using high capacity cDNA archive kit in 30 μl and then diluted to 500 μl. Quantitative real-time PCR was done as follows: initial denaturation for 2 min at 50° C., 10 min at 95° C., following 40 cycles of PCR (95° C. for 15 s, 60° C. for 1 min) by using 5 μl of 2× Master mix, 0.5 μl of probe and 4.5 μl of cDNA. All probes were designed with a 5′ fluoregenic 6-carboxylfluorescein, and a 3′ quencher, tetramethyl-6-carboxyrhodamine. The expression of human GAPDH was used to normalize gene expression levels.

BJC1-iPSCs = experiment: Differentiation of PS-like mesendoderm towards lateral plate-like mesoderm (qPCR, cell number at day 10); assay type: cell-based, human
Description: BJC1-iPSCs were differentiated towards mesoderm after 8 days of differentiation with indicated combination of FGF (20 ng/ml), Rock inhibitor Y27632 (5 uM) and Follistatin (100 ng/ml) in conjunction with the indicated signaling perturbations, qPCR was performed at day 10. […] BJC1-iPSCs were differentiated towards mesoderm after 8 days of differentiation with indicated combination of FGF (20 ng/ml), BMP4 (40 ng/ml), and Rock inhibitor Y27632 (5 uM) in conjunction with the indicated signaling perturbations, qPCR was performed at day 10. […] Mesoderm differentiation was induced with FGF (20 ng/ml), BMP4 (40 ng/ml), rock inhibitor Y27632 (5 μM, only used at the time of passage and remove the next day) and follistatin (100 ng/ml) for 8 days. Quantitative real-time PCR was performed with Taqman expression assay using ABI PRISM 7900HT sequence Detection System (Applied Biosystems). Briefly, […] of total RNA was converted to cDNA using high capacity cDNA archive kit in 30 μl and then diluted to 500 μl. Quantitative real-time PCR was done as follows: initial denaturation for 2 min at 50° C., 10 min at 95° C., following 40 cycles of PCR (95° C. for 15 s, 60° C. for 1 min) by using 5 μl of 2× Master mix, 0.5 μl of probe and 4.5 μl of cDNA. All probes were designed with a 5′ fluoregenic 6-carboxylfluorescein, and a 3′ quencher, tetramethyl-6-carboxyrhodamine. The expression of human GAPDH was used to normalize gene expression levels.

[2] = compared with wnt3a (ACF vs AWF)
[3] = with FGF 20 ng/ml, BMP4 40 ng/ml, Y27632 5 uM, qPCR at day 10

## Cc1cnc(-c2cnc(NCCNc3ccc(C#N)cn3)nc2-c2ccc(Cl)cc2Cl)[nH]1 [CHIR99021, 6-[2-[[4-(2,4-dichlorophenyl)-5-(5-methyl-1H-imidazol-2-yl)pyrimidin-2-yl]amino]ethylamino]pyridine-3-carbonitrile, reference compound]
[1]; [2]
  adherence of iPSCs to the dish: promoted the adherence of iPSCs to the dish
  differentiation toward PS-like mesendoderm: promoted differentiation toward PS-like mesendoderm

## FGF: fibroblast growth factor; in one specific example FGF2
[1]; addition of FGF at day 2
  differentiation toward PS-like mesendoderm: did not further enhance differentiation toward PS-like mesendoderm
[1]; in the presence of FGF at day 2
  expression of mesoderm: expression of mesoderm increased

## C[C@@H](N)[C@H]1CC[C@H](C(=O)Nc2ccncc2)CC1.Cl.Cl [Y27632, (R)-(+)-trans-4-(1-Aminoethyl)-N-(4-Pyridyl)cyclohexanecarboxamide dihydrochloride, reference compound]
BJC1-iPSCs; compared to NT4, dihydrochloride
  expression of lateral plate mesoderm genes Hand1 and FOXF1: increased the expression of lateral plate mesoderm genes Hand1 and FOXF1; also recorded: significantly increases the expression of lateral plate mesoderm genes
BJC1-iPSCs; compared with neurotrophi-4 (NT), day 10
  increase in cell number: 3.53±1.56 fold

B1: noggin: antagonism of BMP signaling (protein, UniProt Q13253 28-232, looked up)
Noggin: QHYLHIRPAPSDNLPLVDLIEHPDPIFDPKEKDLNETLLRSLLGGHYDPGFMATSPPEDRPGGGGGAAGGAEDLAELDQLLRQRPSGAMPSEIKGLEFSEGLAQGKKQRLSKKLRRKLQMWLWSQTFCPVLYAWNDLGSRFWPRYVKVGSCFSKRSCSVPEGMVCKPSKSVHLTVLRWRCQRRGGQRCGWIPIQYPIISECKCSC
BJC1-iPSCs; in the absence of BMP4 or in the presence of noggin, qPCR at day 10
  expression of ectodermal gene Sox1: 38.65 fold

B2: follistatin: protein encoded by the FST gene (protein, UniProt P19883 30-344, looked up)
Follistatin: GNCWLRQAKNGRCQVLYKTELSKEECCSTGRLSTSWTEEDVNDNTLFKWMIFNGGAPNCIPCKETCENVDCGPGKKCRMNKKNKPRCVCAPDCSNITWKGPVCGLDGKTYRNECALLKARCKEQPELEVQYQGRCKKTCRDVFCPGSSTCVVDQTNNAYCVTCNRICPEPASSEQYLCGNDGVTYSSACHLRKATCLLGRSIGLAYEGKCIKAKSCEDIQCTGGKKCLWDFKVGRGRCSLCDELCPDSKSDEPVCASDNATYASECAMKEAACSSGVLLEVKHSGSCNSISEDTEEEEEDEDQDYSFPISSILEW
BJC1-iPSCs; presence compared to absence of Follistatin, qPCR at day 10
  expression of lateral plate mesoderm genes Hand1 and FOXF1 and mesenchymal stem cell genes CD44 and CD105: significantly increases the expression
BJC1-iPSCs; [3]
  endodermal differentiation Sox17 and FOXA1: inhibited endodermal differentiation
  mesodermal differentiation: promoting mesodermal differentiation

B3: activin A: Activin A formed by two activin βA subunits, member of the TGF-β superfamily (protein, UniProt P08476 311-426, looked up)
Inhibin beta A chain: GLECDGKVNICCKKQFFVSFKDIGWNDWIIAPSGYHANYCEGECPSHIAGTSGSSLSFHSTVINHYRMRGHSPFANLKSCCVPTKLRPMSMLYYDDGQNIIKKDIQNMIVEECGCS
modifications: Inhibin beta A chain
[1]; activin 25-100 ng/ml with CHIR99021 3 μM and FGF 20 ng/ml, qPCR at day 2
  differentiation towards PS-like mesendoderm expressing T, MIXL1 and GSC: enhanced differentiation towards PS-like mesendoderm
[1]; activin 25-100 ng/ml, qPCR at day 2
  expression of endodermal marker Sox17: increased with the dose
[1]; qPCR at day 2
  activin A concentration at which the ratio of increased MIXL1 or T to Sox17 was the highest: 25 ng/mL

B4: BMP4: bone morphogenetic protein (protein, UniProt P12644 293-408, looked up)
Bone morphogenetic protein 4: SPKHHSQRARKKNKNCRRHSLYVDFSDVGWNDWIVAPPGYQAFYCHGDCPFPLADHLNSTNHAIVQTLVNSVNSSIPKACCVPTELSAISMLYLDEYDKVVLKNYQEMVVEGCGCR
BJC1-iPSCs; with FGF 20 ng/ml, Y27632 5 uM, Follistatin 100 ng/ml, qPCR at day 10
  BMP4 concentration that led to the highest expression of lateral plate mesoderm markers: 40 ng/mL
